# Laboratory results taken from the Human Domainome abundance scans (Beltran et al. 2025).
# ± gives the uncertainty stated by the source.
# B1: Tudor domain-containing protein 3, residues 554 to 611; numbered along this chain, Q9H7E2 (parent)
# chain: KMWKPGDECFALYWEDNKFYRAEVEALHSSGMTAVVKFIDYGNYEEVLLSNIKPIQTE
# Variants of: B1
# Assay: abundance fitness (aPCA) (normalised: wild type 0, dead -1); higher = more abundant; growth selection in yeast, the domain comes from the species named
# Conditions: Homo sapiens
row,Variant,abundance fitness
1,P54E,-0.006 ± 0.11
2,P54A,-0.162 ± 0.07
3,V24E,-1.04 ± 0.19
4,V24Q,-0.986 ± 0.12
5,V24F,-0.22 ± 0.096
6,V24W,-0.811 ± 0.093
7,V24A,-0.939 ± 0.13
8,V24H,-0.847 ± 0.18
9,V24G,-0.994 ± 0.094
10,V24R,-0.773 ± 0.061
11,V24Y,-0.814 ± 0.15
12,V24D,-1.03 ± 0.28
13,A34I,-0.76 ± 0.18
14,A34P,-1.04 ± 0.28
15,A34E,-0.976 ± 0.12
16,A34T,-0.948 ± 0.17
17,A34L,-0.404 ± 0.074
18,A34W,-0.882 ± 0.12
19,A34Q,-0.575 ± 0.27
20,A34K,-0.646 ± 0.18
21,A34H,-0.861 ± 0.23
22,E45G,-0.101 ± 0.054
23,E45I,-0.975 ± 0.21
24,E45N,-0.368 ± 0.17

row,Variant,abundance fitness
1,E45P,-1.02 ± 0.19
2,E45R,-0.107 ± 0.053
3,E45Y,-0.38 ± 0.15
4,E45W,-0.788 ± 0.089
5,C9E,-0.887 ± 0.14
6,C9Y,-0.802 ± 0.099
7,C9I,-0.975 ± 0.3
8,C9D,-1.03 ± 0.23
9,C9Q,-0.93 ± 0.12
10,C9H,-0.817 ± 0.26
11,T33P,-1.03 ± 0.14
12,T33G,-0.444 ± 0.068
13,T33D,-0.877 ± 0.15
14,T33E,-0.377 ± 0.092
15,T33W,-0.321 ± 0.071
16,N17V,-0.55 ± 0.074
17,N17D,0.034 ± 0.1
18,N17T,-0.366 ± 0.084
19,N17R,-0.084 ± 0.068
20,N17M,-0.191 ± 0.098
21,N17C,-0.349 ± 0.16
22,T57W,-0.272 ± 0.096
23,T57E,0.114 ± 0.092
24,T57F,-0.123 ± 0.1

row,Variant,abundance fitness
1,T57G,0.029 ± 0.055
2,L48N,-0.104 ± 0.11
3,L48A,-0.049 ± 0.07
4,L48E,-0.136 ± 0.089
5,L48F,-0.224 ± 0.11
6,L48W,-0.356 ± 0.071
7,E46L,-0.327 ± 0.076
8,E46Y,-0.324 ± 0.11
9,E46R,-0.138 ± 0.075
10,E46M,-0.342 ± 0.12
11,D16V,-0.722 ± 0.099
12,D16P,-0.602 ± 0.12
13,D16C,-0.961 ± 0.14
14,D16T,-0.377 ± 0.1
15,D16G,-0.89 ± 0.077
16,D16I,-1.04 ± 0.26
17,D16K,-0.366 ± 0.11
18,Y13W,-0.06 ± 0.075
19,Y13C,0.068 ± 0.1
20,Y13M,-0.287 ± 0.1
21,Y13L,-0.15 ± 0.072
22,Y13D,-0.345 ± 0.15
23,S50G,-0.155 ± 0.054
24,S50H,0.048 ± 0.11

row,Variant,abundance fitness
1,S50W,-0.585 ± 0.08
2,S50V,-0.082 ± 0.063
3,L49Y,-0.464 ± 0.1
4,L49D,-0.886 ± 0.12
5,L49M,-0.032 ± 0.081
6,L49R,-0.708 ± 0.069
7,L49E,-0.924 ± 0.11
8,L49F,-0.602 ± 0.14
9,L12N,-0.486 ± 0.17
10,L12S,-0.725 ± 0.088
11,L12Q,-0.252 ± 0.09
12,L12R,-0.124 ± 0.059
13,L27R,-0.872 ± 0.078
14,L27Q,-1.13 ± 0.2
15,L27E,-0.913 ± 0.11
16,L27A,-0.651 ± 0.1
17,L27N,-0.879 ± 0.18
18,L27G,-0.974 ± 0.076
19,Y44F,0.006 ± 0.13
20,Y44D,-0.468 ± 0.089
21,Y44N,-0.111 ± 0.11
22,Y44C,0.097 ± 0.079
23,Y44S,0.135 ± 0.062
24,Y44A,-0.065 ± 0.068

row,Variant,abundance fitness
1,Y44V,0.103 ± 0.07
2,Y44Q,-0.206 ± 0.12
3,Y41M,-0.086 ± 0.11
4,Y41D,0.055 ± 0.083
5,Y41S,0.118 ± 0.061
6,Y41K,0.103 ± 0.088
7,Y41H,0.028 ± 0.099
8,Y41E,0.042 ± 0.087
9,Y41T,0.132 ± 0.085
10,Y41W,-0.029 ± 0.08
11,Y41V,-0.025 ± 0.062
12,Y41Q,0.105 ± 0.086
13,Y41F,0.162 ± 0.1
14,Y41G,0.07 ± 0.064
15,Y41A,0.134 ± 0.062
16,A22F,-0.977 ± 0.25
17,A22G,-0.351 ± 0.06
18,A22H,-0.936 ± 0.21
19,A22W,-0.95 ± 0.12
20,A22Y,-0.844 ± 0.27
21,A22E,-1.04 ± 0.13
22,A22R,-0.756 ± 0.076
23,A22M,-0.908 ± 0.16
24,K1Q,-0.657 ± 0.25

row,Variant,abundance fitness
1,K1H,-0.003 ± 0.25
2,K1D,-0.182 ± 0.21
3,K1R,-0.326 ± 0.1
4,K1N,0.085 ± 0.15
5,G6H,-0.502 ± 0.12
6,G6S,-0.776 ± 0.08
7,G6D,-0.874 ± 0.089
8,G6Q,-0.832 ± 0.19
9,G6I,-0.941 ± 0.2
10,G6T,-0.919 ± 0.13
11,G6F,-0.828 ± 0.12
12,G6N,-0.798 ± 0.12
13,K18N,-0.228 ± 0.11
14,K18E,-0.179 ± 0.087
15,K18H,-0.179 ± 0.12
16,Y20I,-0.347 ± 0.098
17,Y20W,-0.305 ± 0.073
18,Y20L,-0.171 ± 0.059
19,G42R,-0.607 ± 0.069
20,G42T,-0.736 ± 0.27
21,G31P,-0.48 ± 0.086
22,G31S,-0.082 ± 0.062
23,G31M,-0.043 ± 0.11
24,G31A,0.015 ± 0.076

row,Variant,abundance fitness
1,G31F,-0.558 ± 0.12
2,G31L,-0.267 ± 0.075
3,G31D,-0.198 ± 0.083
4,K4W,-0.543 ± 0.083
5,K4S,-0.149 ± 0.065
6,K4G,-0.486 ± 0.064
7,K4R,-0.232 ± 0.061
8,K4N,-0.233 ± 0.13
9,K4M,-0.169 ± 0.095
10,K4T,-0.059 ± 0.077
11,E23I,0.143 ± 0.1
12,E23S,0.013 ± 0.059
13,E23L,-0.225 ± 0.062
14,E23C,-0.034 ± 0.079
15,E23H,0.071 ± 0.088
16,E23A,-0.257 ± 0.071
17,R21S,-0.622 ± 0.069
18,R21P,-0.206 ± 0.077
19,R21T,-0.542 ± 0.094
20,R21I,-0.434 ± 0.13
21,R21H,-0.143 ± 0.089
22,R21E,-0.301 ± 0.099
23,R21C,-0.826 ± 0.11
